Data on eight molecules can be found in US20200157212A1 (Pfizer, published 2020).

For experiment [1], the target named is T1, Human ROBO1 RSK mutant overexpressed on HEK293 cells (human, UniProt Q9Y6N7 26-1651).
T1 construct: K137R and R139K already in the entry; also called ROBO1-RSK cells
In words: flow cytometry, Geo MFI ROBO1-RSK/ROBO2-KSR HEK293 cells, 2.5 µg/ml.

Experiment [2] addresses T2, Human ROBO2 overexpressed on HEK293 cells (human, UniProt Q9HCK4 22-1378).
T2 construct: also called ROBO2 cells; native ROBO2
T2 sequence: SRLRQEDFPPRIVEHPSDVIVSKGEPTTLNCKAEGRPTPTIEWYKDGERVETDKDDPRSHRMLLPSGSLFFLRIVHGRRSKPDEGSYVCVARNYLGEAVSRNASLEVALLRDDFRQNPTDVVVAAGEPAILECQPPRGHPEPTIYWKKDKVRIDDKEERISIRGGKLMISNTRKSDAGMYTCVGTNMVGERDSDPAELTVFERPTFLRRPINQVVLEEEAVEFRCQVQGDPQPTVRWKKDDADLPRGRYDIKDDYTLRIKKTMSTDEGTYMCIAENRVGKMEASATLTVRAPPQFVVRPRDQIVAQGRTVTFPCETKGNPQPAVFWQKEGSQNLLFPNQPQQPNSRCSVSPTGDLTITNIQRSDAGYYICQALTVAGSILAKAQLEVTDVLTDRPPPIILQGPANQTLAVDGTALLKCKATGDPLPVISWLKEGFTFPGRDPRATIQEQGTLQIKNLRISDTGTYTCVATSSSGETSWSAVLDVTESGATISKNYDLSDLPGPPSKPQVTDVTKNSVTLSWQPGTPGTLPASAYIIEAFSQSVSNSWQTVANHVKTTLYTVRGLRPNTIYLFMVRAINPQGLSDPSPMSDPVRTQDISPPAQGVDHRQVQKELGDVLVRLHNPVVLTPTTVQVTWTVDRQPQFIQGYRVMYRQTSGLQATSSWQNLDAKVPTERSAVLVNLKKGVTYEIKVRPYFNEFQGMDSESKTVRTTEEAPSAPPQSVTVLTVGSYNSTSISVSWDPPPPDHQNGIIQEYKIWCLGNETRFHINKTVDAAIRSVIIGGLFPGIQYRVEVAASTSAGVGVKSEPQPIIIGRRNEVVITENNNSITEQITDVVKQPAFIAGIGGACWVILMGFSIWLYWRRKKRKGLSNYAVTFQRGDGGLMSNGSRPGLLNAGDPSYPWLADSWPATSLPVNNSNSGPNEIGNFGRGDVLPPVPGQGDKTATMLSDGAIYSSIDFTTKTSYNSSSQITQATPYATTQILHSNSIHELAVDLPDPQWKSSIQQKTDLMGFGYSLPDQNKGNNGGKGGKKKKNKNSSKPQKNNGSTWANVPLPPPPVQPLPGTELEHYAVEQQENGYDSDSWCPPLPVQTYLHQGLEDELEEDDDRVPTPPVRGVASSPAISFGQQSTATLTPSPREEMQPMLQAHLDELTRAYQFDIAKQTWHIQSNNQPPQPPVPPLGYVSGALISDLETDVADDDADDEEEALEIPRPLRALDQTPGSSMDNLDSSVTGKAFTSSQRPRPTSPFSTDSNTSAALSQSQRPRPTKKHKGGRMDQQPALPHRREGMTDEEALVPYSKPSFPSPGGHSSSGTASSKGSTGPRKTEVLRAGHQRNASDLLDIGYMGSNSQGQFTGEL
In words: flow cytometry, Geo MFI ROBO2/ROBO1 HEK293 cells, 2.5 µg/ml. The procedure:
Binding of the antibodies was detected using a secondary fluorochrome conjugated anti-human IgG F(ab′)₂ antibody and samples were analyzed on a Fortessa cytometer (BD Biosciences). The fold ROBO2 selectivity was calculated as the geometric mean fluorescence intensity (Geo MFI) with ROBO2 cells/Geo MFI with ROBO1 cells. A fold change higher than 3 was considered to be ROBO2 specific (Table 2, Fold Selectivity). Some affinity matured clones had increased ROBO1 reactivity, for example Abcs 55, CTI-R2-10 and CTIR2-13.
HTRF assays were run with 5 nM d2-labeled SLIT2-N and antibodies were added at 1 nM. […] Antibodies derived from chain (Abcs series) or CDR shuffling (CTIR-2 series) were evaluated in 11-point, 5-fold dilution series with a top concentration of 1500 nM, N.T. = not tested; ^cFold selectivity was calculated as Geometric Mean Fluorescent Intensity (Geo MFI) of ROBO2/Geo MFI of ROBO1 binding. […] Outcomes: results are listed in order of assays listed in the table (left to right), I.A. = Improved Affinity
(Flow cytometry measures light scatter and fluorescence of single cells or particles in a stream.)

T1 sequence (Q9Y6N7 other isoform, or with tags, fused parts or gaps mutant limits assumed): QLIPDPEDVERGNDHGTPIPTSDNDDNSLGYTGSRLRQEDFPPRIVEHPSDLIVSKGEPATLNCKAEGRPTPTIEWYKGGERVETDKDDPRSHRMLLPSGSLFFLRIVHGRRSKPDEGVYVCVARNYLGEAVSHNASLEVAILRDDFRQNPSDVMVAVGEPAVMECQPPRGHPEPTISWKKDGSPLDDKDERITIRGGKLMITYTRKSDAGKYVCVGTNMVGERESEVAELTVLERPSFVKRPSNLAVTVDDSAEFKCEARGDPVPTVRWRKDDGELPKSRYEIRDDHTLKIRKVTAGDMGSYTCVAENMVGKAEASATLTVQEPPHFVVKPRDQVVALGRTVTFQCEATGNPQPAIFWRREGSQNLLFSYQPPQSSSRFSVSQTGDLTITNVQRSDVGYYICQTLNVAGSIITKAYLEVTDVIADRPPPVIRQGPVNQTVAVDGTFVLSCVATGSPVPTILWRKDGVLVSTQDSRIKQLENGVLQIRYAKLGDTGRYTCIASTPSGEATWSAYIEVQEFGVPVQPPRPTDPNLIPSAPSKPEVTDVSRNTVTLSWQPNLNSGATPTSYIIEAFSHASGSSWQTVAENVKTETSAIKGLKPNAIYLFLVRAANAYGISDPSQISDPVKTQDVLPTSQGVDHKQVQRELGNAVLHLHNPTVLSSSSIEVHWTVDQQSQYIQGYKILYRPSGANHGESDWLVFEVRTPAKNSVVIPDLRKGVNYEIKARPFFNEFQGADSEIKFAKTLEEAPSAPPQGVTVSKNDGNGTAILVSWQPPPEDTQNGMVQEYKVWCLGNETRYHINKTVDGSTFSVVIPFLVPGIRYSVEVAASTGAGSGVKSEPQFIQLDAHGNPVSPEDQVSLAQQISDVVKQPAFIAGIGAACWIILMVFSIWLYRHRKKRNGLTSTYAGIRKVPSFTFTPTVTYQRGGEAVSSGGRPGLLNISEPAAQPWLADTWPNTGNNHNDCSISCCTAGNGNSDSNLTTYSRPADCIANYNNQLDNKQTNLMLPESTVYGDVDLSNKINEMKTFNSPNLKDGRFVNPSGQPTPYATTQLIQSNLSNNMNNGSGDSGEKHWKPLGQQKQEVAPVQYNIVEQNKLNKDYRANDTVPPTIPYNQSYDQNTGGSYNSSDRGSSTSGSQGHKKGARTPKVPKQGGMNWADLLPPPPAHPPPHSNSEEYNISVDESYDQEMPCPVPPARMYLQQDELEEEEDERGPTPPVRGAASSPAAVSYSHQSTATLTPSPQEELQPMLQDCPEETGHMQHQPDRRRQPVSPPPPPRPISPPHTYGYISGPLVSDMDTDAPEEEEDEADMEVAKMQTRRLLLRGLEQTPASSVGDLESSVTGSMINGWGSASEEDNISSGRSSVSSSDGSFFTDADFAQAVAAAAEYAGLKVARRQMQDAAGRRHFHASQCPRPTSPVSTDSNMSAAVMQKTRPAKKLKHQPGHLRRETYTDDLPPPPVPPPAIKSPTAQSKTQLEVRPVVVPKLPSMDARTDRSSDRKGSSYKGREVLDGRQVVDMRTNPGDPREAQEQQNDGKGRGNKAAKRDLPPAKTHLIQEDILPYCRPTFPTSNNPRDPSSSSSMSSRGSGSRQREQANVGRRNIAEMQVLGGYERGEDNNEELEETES

B1: Abcs20 (antibody, human IgG1, kappa, V domains shown)
VH: EVQLVQSGAEVKKPGASVKVSCKASGYTFTGYYMHWVRQAPGQGLEWMGWINPKNGDTEFPQKFQGRVTMTRDTSITTAYMDLSRLRSDDTAVYYCARESGDDAFDIWGQGTMVTVSS
VL: DIVMTQSPSSLSASVGDRVTITCRASQSISSYLNWYQQKPGKAPKLLIYAASSLQSGVPSRFSGSGSGTDFTLTISSLQPEDFATYYCQQSVGLSFGGGTKVEIKR
notes: chain-shuffled IgG
Turning to B1, the “Fold Selectivity for RSK/KSR” value in experiment [1] was 7 fold. Moreover, the “Fold Selectivity for ROBO2/ROBO1” value in experiment [2] stood at 5.2 fold.

B2: CTIR2-14 (antibody, human IgG1, kappa, V domains shown)
VH: EVQLVQSGAEVKKPGASVKVSCKASGYTFRGYAMHWVRQAPGQGLEWMGWIDPRTGLTKFPQKFQGRVTMTRDTSITTAYMDLSRLRSDDTAVYYCARESGDDAFDIWGQGTMVTVSS
VL: DIVMTQSPSSLSASVGDRVTITCRASQKISSYLNWYQQKPGKAPKLLIYAASSLQYGVPSRFSGSGSGTDFTLTISSLQPEDFATYYCQQSLELGFGGGTKVEIKR
notes: CDR-shuffled IgG
B2: the “Fold Selectivity for RSK/KSR” value in experiment [1] is > 100 fold. In experiment [2], the “Fold Selectivity for ROBO2/ROBO1” value is 23.9 fold.

B3: CTIR2-16 (antibody, human IgG1, kappa, V domains shown)
VH: EVQLVQSGAEVKKPGASVKVSCKASGYTFRGYAMHWVRQAPGQGLEWMGWIDPRTGLTKFPQKFQGRVTMTRDTSITTAYMDLSRLRSDDTAVYYCARESGDDAFDIWGQGTMVTVSS
VL: DIVMTQSPSSLSASVGDRVTITCRASQKISSYLNWYQQKPGKAPKLLIYAASSLQYGVPSRFSGSGSGTDFTLTISSLQPEDFATYYCQQSVGLFFGGGTKVEIKR
notes: CDR-shuffled IgG
Take B3: the “Fold Selectivity for RSK/KSR” value in experiment [1] was determined as 66.5 fold. Besides, the “Fold Selectivity for ROBO2/ROBO1” value in experiment [2] worked out at 6.2 fold.

B4: Abcs55 (antibody, human IgG1, kappa, V domains shown)
VH: EVQLVQSGAEVKKPGASVKVSCKASGYTFTGYYMHWVRQAPGQGLEWMGWINPKDGDTEFPQKFQGRVTMTRDTSITTAYMDLSRLRSDDTAVYYCARESGDDAFDIWGQGTMVTVSS
VL: DIVMTQSPSSLSASVGDRVTITCRASQSISSYLNWYQQKPGKAPKLLIYAASSLQYGVPSRFSGSGSGTDFTLTISSLQPEDFATYYCQQSYSTSFGGGTKVEIKR
notes: chain-shuffled IgG
Take B4: the “Fold Selectivity for RSK/KSR” value in experiment [1] is 1.5 fold. The “Fold Selectivity for ROBO2/ROBO1” value in experiment [2] amounted to 1.5 fold.

B5: Abcs25 (antibody, human IgG1, kappa, V domains shown)
VH: EVQLVQSGAEVKKPGASVKVSCKASGYTFTGYYMHWVRQAPGQGLEWMGWINPKDGDTEFPQKFQGRVTMTRDTSITTAYMDLSRLRSDDTAVYYCARESGDDAFDIWGQGTMVTVSS
VL: DIVMTQSPSSLSASVGDRVTITCRASQSISSYLNWYQQKPGKAPKLLIYAASSLQSGVPSRFSGSGSGTDFTLTISSLQPEDFATYYCQQSVGLSFGGGTKVEIKR
notes: chain-shuffled IgG
Consider B5, for which the “Fold Selectivity for RSK/KSR” value in experiment [1] came to 8.1 fold. Further, the “Fold Selectivity for ROBO2/ROBO1” value in experiment [2] worked out at 3.3 fold.

B6: Abcs40 (antibody, human IgG1, kappa, V domains shown)
VH: EVQLVQSGAEVKKPGASVKVSCKASGYTFTGYYMHWVRQAPGQGLEWMGWINPKDGDTEFPQKFQGRVTMTRDTSITTAYMDLSRLRSDDTAVYYCARESGDDAFDIWGQGTMVTVSS
VL: DIVMTQSPSSLSASVGDRVTITCRASQSISSYLNWYQQKPGKAPKLLIYAASSLQSGVPSRFSGSGSGTDFTLTISSLQPEDFATYYCQQSVGLFFGGGTKVEIKR
notes: chain-shuffled IgG
For the molecule B6, the “Fold Selectivity for RSK/KSR” value in experiment [1] was 9.3 fold. Moreover, in experiment [2], the “Fold Selectivity for ROBO2/ROBO1” value was found to be 4.8 fold.

B7: Abcs35 (antibody, human IgG1, kappa)
heavy: EVQLVQSGAEVKKPGASVKVSCKASGYTFTGYYMHWVRQAPGQGLEWMGWINPKNGDTEFPQKFQGRVTMTRDTSITTAYMDLSRLRSDDTAVYYCARESGDDAFDIWGQGTMVTVSSASTKGPSVFPLAPSSKSTSGGTAALGCLVKDYFPEPVTVSWNSGALTSGVHTFPAVLQSSGLYSLSSVVTVPSSSLGTQTYICNVNHKPSNTKVDKKVEPKSCDKTHTCPPCPAPEAAGAPSVFLFPPKPKDTLMISRTPEVTCVVVDVSHEDPEVKFNWYVDGVEVHNAKTKPREEQYNSTYRVVSVLTVLHQDWLNGKEYKCKVSNKALPAPIEKTISKAKGQPREPQVYTLPPSREEMTKNQVSLTCLVKGFYPSDIAVEWESNGQPENNYKTTPPVLDSDGSFFLYSKLTVDKSRWQQGNVFSCSVMHEALHNHYTQKSLSLSPGK
light: DIVMTQSPSSLSASVGDRVTITCRASQSISSYLNWYQQKPGKAPKLLIYAASSLQSGVPSRFSGSGSGTDFTLTISSLQPEDFATYYCQQSVGLFFGGGTKVEIKRTVAAPSVFIFPPSDEQLKSGTASVVCLLNNFYPREAKVQWKVDNALQSGNSQESVTEQDSKDSTYSLSSTLTLSKADYEKHKVYACEVTHQGLSSPVTKSFNRGEC
notes: fully human IgG1; VH of Ab96 with VL of Ab123
Consider B7, for which, in experiment [1], the “Fold Selectivity for RSK/KSR” value was 6.6 fold. The “Fold Selectivity for ROBO2/ROBO1” value in experiment [2] amounted to 4.8 fold.

B8: CTIR2-15 (antibody, human IgG1, kappa, V domains shown)
VH: EVQLVQSGAEVKKPGASVKVSCKASGYTFRGYAMHWVRQAPGQGLEWMGWIDPRTGLTKFPQKFQGRVTMTRDTSITTAYMDLSRLRSDDTAVYYCARESGDDAFDIWGQGTMVTVSS
VL: DIVMTQSPSSLSASVGDRVTITCRASQKISSYLNWYQQKPGKAPKLLIYAASSLQYGVPSRFSGSGSGTDFTLTISSLQPEDFATYYCQQSVGLSFGGGTKVEIKR
notes: CDR-shuffled IgG
On to B8, for which, in experiment [1], the “Fold Selectivity for RSK/KSR” value is > 100 fold. The “Fold Selectivity for ROBO2/ROBO1” value in experiment [2] worked out at 12.1 fold.
